According to IntAct's records for PubMed 9697699:

B1: Serine hydrolase RBBP9 (Rattus norvegicus (Rat)), O88350 (parent)
chain: MASPTKAVIVPGNGGGDVATHGWYGWVRKGLEQIPGFQCLAKNMPDPITARESIWLPFMETELHCDEKTIIIGHSSGAIAAMRYAETHQVYALILVSAYTSDLGDENERASGYFSRPWQWEKIKANCPHIIQFGSTDDPFLPWKEQQEVADRLDAKLYKFTDRGHFQNTEFHELIRVVKSMLTPAL
partner: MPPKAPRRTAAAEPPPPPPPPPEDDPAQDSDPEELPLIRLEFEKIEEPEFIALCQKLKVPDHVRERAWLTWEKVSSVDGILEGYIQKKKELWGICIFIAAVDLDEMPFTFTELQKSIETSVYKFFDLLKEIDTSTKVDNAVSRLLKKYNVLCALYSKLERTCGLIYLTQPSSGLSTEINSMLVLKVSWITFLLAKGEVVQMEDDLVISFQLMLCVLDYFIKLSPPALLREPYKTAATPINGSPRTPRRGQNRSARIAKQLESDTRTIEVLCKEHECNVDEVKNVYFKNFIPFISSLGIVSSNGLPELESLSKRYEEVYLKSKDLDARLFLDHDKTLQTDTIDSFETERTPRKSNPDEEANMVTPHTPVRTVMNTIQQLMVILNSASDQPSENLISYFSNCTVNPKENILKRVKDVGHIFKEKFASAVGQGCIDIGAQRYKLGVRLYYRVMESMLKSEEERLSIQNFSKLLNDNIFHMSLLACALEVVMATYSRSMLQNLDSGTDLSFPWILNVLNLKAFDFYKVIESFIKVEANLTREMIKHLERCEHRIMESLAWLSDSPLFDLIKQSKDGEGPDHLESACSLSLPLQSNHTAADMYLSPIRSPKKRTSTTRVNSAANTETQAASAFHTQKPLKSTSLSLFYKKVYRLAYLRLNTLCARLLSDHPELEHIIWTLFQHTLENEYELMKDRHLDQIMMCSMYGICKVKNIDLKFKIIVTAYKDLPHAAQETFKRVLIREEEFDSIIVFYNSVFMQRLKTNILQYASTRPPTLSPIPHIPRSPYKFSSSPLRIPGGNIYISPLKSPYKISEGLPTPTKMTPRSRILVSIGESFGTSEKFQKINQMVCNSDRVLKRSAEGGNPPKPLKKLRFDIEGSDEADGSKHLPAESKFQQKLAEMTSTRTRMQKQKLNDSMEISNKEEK

Variants of: B1
Conditions: with rb_rat Rb1, P33568
In the case of L63E, the “effect of a mutation on the interaction” value is reported as “disrupting interaction”.
